In patent US7732178B2, “Laccase enzymes and their uses” (AB Enzymes Oy, priority 2004, dated 2010):

Experiments:
[1] = Specific activity towards ABTS; type: biochemical; details: 25 mM succinate buffer pH 4.5, 25° C.
Procedure: The activity assay was carried out in accordance with the method developed by Niku-Paavola et al. (1988). The sample was diluted with 0.025 M succinate buffer, pH 4.5. […] The activity is expressed as nano katals.
(§1) Specific activities of the purified T. arenaria and C. thermophilum laccases were determined towards different laccase substrates.

[2] = Specific activity towards di-methoxy-phenol (DMP); type: biochemical; details: 25 mM MES buffer, pH 5.5
Procedure: as §1

[3] = Specific activity towards syringaldazine; type: biochemical; details: 25 mM MES buffer, pH 5.5
Procedure: as §1

[4] = Specific activity towards guaiacol; type: biochemical; details: 25 mM MES buffer, pH 5.5
Procedure: as §1

[5] = Isoelectric focusing (pI); type: physicochemical; details: pH range 3-9
Procedure, shortened: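 Purified Thielavia arenaria and Chaetomium thermophilum laccases resolved by isoelectric focusing over pH 3-9. pI read from focused band position.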

[6] = Denim bleaching at different pH values; design: key to After laccase treatment L* / After laccase treatment b* / Increase of L*: CIE L*a*b* colour coordinates (illuminant D65), Minolta reflectance; details: for After laccase treatment L* / After laccase treatment b* / Increase of L*: face side of denim, 30 min, 50° C.; for decolorization of indigo dye of denim compared to DeniLite II Base: pH values 6 and 7, with mediator
Procedure: Lee Cooper jeans (MASI Company Oy, Finland) that were desized and treated with neutral ECOSTONE® cellulase were used as test material. Laccase treatments were performed in LP-2 Launder Ometer as follows. About 10 g of denim swatches (15×14 cm) were loaded into 1.2 liter containers containing 200 ml Mc Ilvaine's citrate phosphate buffer pH 5, 6 or 7 and the containers were temperated. Enzyme with or without the mediator (methyl syringate, DeniLite II Assist, Novozymes) was added as laccase activity units. Enzyme was dosed 200 nkat/g and the mediator 10 mg/g on the weight of fabric. […] The Launder Ometer was run at 50° C. for 30 min and after that the temperature in Launder was raised to 80° C. for 10 min. The swatches were carefully rinsed with warm water, dried half-dry in a tumbler and after that air dried.
The bleaching effect was evaluated by measuring the colour as reflectance values with the Minolta Chromameter CM 1000 (Minolta Co.) using L*a*b* color space coordinates (illuminant D65). The colour from both sides of the swatches was measured before and after the laccase treatment. Each measurement was the average of several measurements.

[7] = Stain removal, tea soiling; design: key to Tea L* / Tea a* / Tea b*: CIE L*a*b* color coordinates from reflectance; details: for Tea L* / Tea a* / Tea b*: 60 min, pH 6; for removal of tea soiling with the mediator: CtLcc1 at 60° C., TaLcc2 at 50° C.
Procedure: Laccases CtLcc1, TaLcc2, TaLcc4 and Denilite II Base (Example 7) were tested for their ability to remove stains. The following artificially soiled test cloths were used: grass soiling (Art.164, EMPA Testmaterialen, Germany), tea soiling (Art. 167, EMPA Testmaterialen, Germany). The fabric was cut in 5.8×5.8 cm swatches. Laccase treatments were performed in LP-2 Launder Ometer as follows. About 5 g of soiled fabrics were loaded into 1.2 liter containers containing 150 ml Mc Ilvaine's citrate phosphate buffer pH 6 and the containers were temperated. Enzyme with or without the mediator (methyl syringate, DeniLite II Assist, Novozymes) was added as laccase activity units (Example 7). Enzyme was dosed 200 nkat/g and the mediator 10 mg/g on the weight of fabric, except at 40° C. dosages of 20 nkat/g and 2 mg/g were also used. The Launder Ometer was run at 40, 50 or 60° C. and pH 6 for 60 min. After that the swatches were carefully rinsed under running water and in shake flasks containing warm water and dried in the air.
The stain removal effect was evaluated by measuring the colour as reflectance values using L*a*b* color space coordinates (Example 7). The colour of the swatches was measured before and after the laccase treatment.

[8] = pH 5, enzyme 200 nkat/g without the mediator, or mediator 10 mg/g alone
[9] = pH 5, enzyme 200 nkat/g, mediator 10 mg/g
[10] = pH 6, enzyme 200 nkat/g without the mediator, or mediator 10 mg/g alone
[11] = pH 6, enzyme 200 nkat/g, mediator 10 mg/g
[12] = pH 7, enzyme 200 nkat/g without the mediator, or mediator 10 mg/g alone
[13] = pH 7, enzyme 200 nkat/g, mediator 10 mg/g
[14] = 40° C., enzyme 20 nkat/g + mediator 2 mg/g (Mediator only: 0 nkat/g)
[15] = 40° C., enzyme 200 nkat/g + mediator 10 mg/g (Mediator only: 0 nkat/g), RF5571
[16] = 40° C., enzyme 200 nkat/g + mediator 10 mg/g (Mediator only: 0 nkat/g), RF5573
[17] = 40° C., enzyme 200 nkat/g, mediator 0 mg/g
[18] = 50° C., enzyme 200 nkat/g + mediator 10 mg/g (Mediator only: 0 nkat/g)
[19] = 40° C., enzyme 200 nkat/g + mediator 10 mg/g (Mediator only: 0 nkat/g)
[20] = 60° C., enzyme 200 nkat/g + mediator 10 mg/g (Mediator only: 0 nkat/g)
[21] = 60° C., enzyme 200 nkat/g, mediator 0 mg/g

| Molecule | Specific activity on ABTS [1] [nkat/mg] | Specific activity on DMP [2] [nkat/mg] | Specific activity on syringaldazin [3] [nkat/mg] | Specific activity on guaiacol [4] [nkat/mg] | pI [5] | After laccase treatment L* [6, 8] | After laccase treatment b* [6, 8] | Increase of L* [6, 8] | After laccase treatment L* [6, 9] | After laccase treatment b* [6, 9] | Increase of L* [6, 9] | After laccase treatment L* [6, 10] | After laccase treatment b* [6, 10] | Increase of L* [6, 10] | After laccase treatment L* [6, 11] | After laccase treatment b* [6, 11] | Increase of L* [6, 11] | After laccase treatment L* [6, 12] | After laccase treatment b* [6, 12] | Increase of L* [6, 12] | further results |
| --- | --- | --- | --- | --- | --- | --- | --- | --- | --- | --- | --- | --- | --- | --- | --- | --- | --- | --- | --- | --- | --- |
| TaLcc2: Thielavia arenaria ALKO 4197 laccase, SEQ ID NO: 41, produced in Trichoderma reesei (protein, Thielavia arenaria ALKO4197; (1)..(589) Deduced amino acid sequence of Thielavia arenaria ALKO4197 TaLacc2) MLTETLKSRNMLQSILALLATALGSSAFAIPELPEVSLQPRQACENTATSRQCWGDLSIDTNYYEVLPSTGRPPQEYWLSVVEGPCAPDGYNRTCMTFNGTVPGPTLFADWGDELVIHVTNNMVNNGTAIHWHGIRMLNNTLNDGVPGVTQCAIAPGESMTYRFNVTQYGSTWYHSHFSLQYAEGLFGGMILRGPSTANWDEDLGVLFLQDWSHVEAFTRWHEAKAGFPPSLDGGLINGTNTFDCSTLSPTDPKCTGNGKKFETVFEPGKKYLIRLINVAIDGVFQFSIDGHSLTVIATDLVPIVPYTTDSVQITIGQRYDIIVEANATPGNYWMRADWVTACVTNDHPEHMTGIVRYDASSIDPPTSESNVTKTSSCLGEPNEKTIPHLSLDVTNIGGTNVEELSFDTTSGDYFQWTLNTSSLVLDWGNPTMARIFNGDAIFPTEYNVVAVNKTGTGPEWTVLVIQDQSNLPIAHPIHLHGHDFWVLAAEEGVFNGNISSFNTRNPARRDVATLPGRGYLAIAFQIDNPGTWLTHCHIAWHASQGLSLEFVESQSEIVTDEVSRGVFNDVCASWRAHDPLWEQEDSGI | 360 | 75 | 120 | 40 | 3.5 | 30.11 | −18.63 | −0.02 | 33.68 | −17.91 | 5.39 | 29.17 | −18.51 | 0.30 | 39.01 | −17.46 | 10.57 | 28.24 | −18.30 | 0.77 | After laccase treatment L* [6, 13]: 35.85; After laccase treatment b* [6, 13]: −18.27; Increase of L* [6, 13]: 7.26; decolorization of indigo dye of denim compared to DeniLite II Base [6]: more efficient; Tea L* [7, 14]: 75.61; Tea a* [7, 14]: 5.24; Tea b* [7, 14]: 23.66; Tea L* [7, 15]: 77.28; Tea a* [7, 15]: 4.36; Tea b* [7, 15]: 24.32; Tea L* [7, 16]: 77.04; Tea a* [7, 16]: 4.41; Tea b* [7, 16]: 24.36; Tea L* [7, 17]: 76.09; Tea a* [7, 17]: 5.37; Tea b* [7, 17]: 22.59; Tea L* [7, 18]: 77.73; Tea a* [7, 18]: 3.99; Tea b* [7, 18]: 22.89; removal of tea soiling with the mediator [7]: effective |
| CtLcc1: Chaetomium thermophilum ALKO 4265 laccase, SEQ ID NO: 47, produced in Trichoderma reesei (protein, Chaetomium thermophilum ALKO4265; (1)..(607) Deduced amino acid sequence of Chaetomium thermophilum ALKO4265 CtLcc1) MKFLTYATALLGALTAVVGAIPTRSGTKKKYIRDGPGPCHTPSNRACWAPGFDINTDYEVNTPNTGVTRNYTLTLTEEDNWTGPDGVVKEKIMLVNGKTLGPTIEANWGDWIEVKVINNLLTNGTSIHWHGIHQKGSNLHDGANGVTECPIPPNGGQRTYRFRAQQYGTSWYHSHFSAQYGNGIVGPIVIHGPASLPYDIDLGPFPLTDYYYKSADELVRHTQNNGPPFSDNVLFNGTGVHPQTGHGQYAKVTLTPGKRHRLRIINMSTENHFQVSLVGHQFTVIAADMVPVHSYTTDSLFLAVGQRYDVTIDASQTPGNYWFNVTFGGGFACGGSFNPNPAAIFHYEGAPDALPTDPGVPPRDHNCLDTLDLVPVVPRNVQVNQFVKKPENTLPVELSLGGTPLFVWKVNGSAIDVDWGNPVLQYVMDRNTSYRQADNIVEVNGVNQWTYWLIENDPNGAFSLPHPMHLHGHDFLIVGRSPDVPPGSNQRYNFDPATDIYRLRGQNPTRRDVAMLPAGGWLLLAFLTDNPGAWLFHCHIAWHVSGGLSVDFLERPNDLRNSILQHDKDEFNRVCNEWRTYWPNSPHPKIDSGLKHRWVEESEWLVR | 705 | 290 | 400 | 85 | 4.0-4.3 | 28.88 | −18.65 | 0.46 | 35.07 | −18.38 | 5.91 | 28.83 | −18.53 | −0.13 | 40.08 | −17.18 | 11.19 | 29.32 | −18.52 | 0.73 | After laccase treatment L* [6, 13]: 36.69; After laccase treatment b* [6, 13]: −17.88; Increase of L* [6, 13]: 8.31; decolorization of indigo dye of denim compared to DeniLite II Base [6]: more efficient; Tea L* [7, 14]: 76.34; Tea a* [7, 14]: 5.10; Tea b* [7, 14]: 23.89; Tea L* [7, 19]: 77.70; Tea a* [7, 19]: 4.26; Tea b* [7, 19]: 24.50; Tea L* [7, 17]: 76.22; Tea a* [7, 17]: 5.37; Tea b* [7, 17]: 22.68; Tea L* [7, 20]: 79.76; Tea a* [7, 20]: 3.52; Tea b* [7, 20]: 22.16; Tea L* [7, 21]: 77.10; Tea a* [7, 21]: 4.84; Tea b* [7, 21]: 21.10; removal of tea soiling with the mediator [7]: effective |
